# According to US7019108B2, “Method and composition for inhibition of angiogenesis and tumor growth using compounds based on a sequence within MMP-2” (priority 2001, dated 2006):
# No end group written: not given here.
# Legend:
# Format in all cases: in vivo
# [1] = system: CS-1 melanoma tumor cells; experiment: CS-1 melanoma tumor growth on the CAM of chick embryos, systemic Pexstatin
# Description: CS-1 melanoma tumor cells (5×10^6) were inoculated on the Chorioallantoic Membranes (CAMs) of 10 day old chick embryos. Twenty four hours latter the embryos received a single intravenous injection of 50 μg of Pexstatin peptide or PBS control. At the end of a 7 day incubation period the resulting tumors were resected and wet weights determined. Data bars represent the mean±the standard errors of the tumor weight from 5 to 10 embryos per condition.
# [2] = system: βFGF induced angiogenesis; experiment: βFGF induced angiogenesis in the chick CAM assay, systemic Pexstatin; details: 3 day incubation
# Description: A). Filter discs saturated with βFGF were placed on the CAMs of 10 day old chick embryos. Twenty four hours later, the embryos received a single intravenous injection with 50 μg of Pexstatin, control peptide or PBS. At the end of a 3 day incubation period the filter discs and surrounding CAM tissue were removed and angiogenesis was quantified by counting the number of blood vessel branch points within the area of the filter disc.
# B). FIG. 4 illustrates the quantification of the angiogenesis experiment with Pexstatin. Data bars represent the mean+standard errors of 5 to 10 embryos per condition. The angiogenesis index is equal to the number of branch points from experimentally treated embryos minus the number of branch points from CAMs in the absence of βFGF.
# B16 melanoma tumor cells = experiment: Chick embryo experimental metastasis model, B16 melanoma; details: 10 μg/embryo inoculated intravenously with the tumor cells, 12 day old chick embryos, 7 day incubation
# Description: To examine the effects of Pexstatin on melanoma tumor metastasis in vivo, the chick embryo experimental metastasis model was utilized. Briefly, B16 melanoma tumor cells (2.5×10^4) were inoculated intravenously with Pexstatin (10 μg/embryo) or a control peptide in 12 day old chick embryos. In addition, a no treatment control was also added (NT). The Embryos were allowed to incubate for a total of 7 days. At the end of a 7 day incubation period the embryos were sacrificed and the lungs were removed for analysis. The number of melanoma lung lesions were counted for each lobe of the lung. Data bars represent the mean+the standard errors of the metastatic lung lesions from 5 to 10 embryos per condition.
# [3] = system: M21 human melanoma tumor cells; experiment: M21 human melanoma tumor growth in nude mice, systemic Pexstatin; details: female nude mice, daily injections of 100 μg
# Description: M21 human melanoma tumor cells (2×10^6) were injected subcutaneously into female nude mice. Twenty four hours later the mice were treated daily with injections of 100 μg of Pexstatin MMP-2 peptide or PBS controls. Tumor sizes were monitored daily by caliper measurements. Data bars represent the mean tumor volume+the standard errors at each time point. Tumor volumes were estimated using the formula V=L2×W/2, V=volume, L=length, and W=width.
sequence,measurement,setting,value
"CIFAGDKFWRC (cysteine pairing not given here) [Pexstatin, eleven amino acid peptide based on MMP-2 positions 582–590 flanked by cysteine residues]",toxic side effects during the assay period,"[1]; chick embryo, single i.v. 50 μg, 7 day incubation",no toxic side effects were noted
same,inhibition of CS1 melanoma tumor growth (tumor wet weight) as compared to controls,"[1]; single intravenous injection of 50 μg, 24 h after inoculation, within 7 days, chick embryo CAM",approximately 60%
same,toxic side effects in the embryos during the assay period,"[2]; chick embryo, single i.v. 50 μg",no toxic side effects were noted
same,"inhibition of βFGF induced angiogenesis (angiogenesis index, branch points) as compared to controls","[2]; single intravenous injection of 50 μg, chick CAM",approximately 90%
same,inhibition of experimental B16 melanoma metastasis (lung lesions) as compared to controls,B16 melanoma tumor cells,approximately 80%
same,toxic side effects during the assay period,[3],no toxic side effects were noted
